Data taken from patent US20150258192A1, “COMPOSITIONS AND METHODS FOR PREVENTING OR TREATING CHRONIC LUNG ALLOGRAFT DYSFUNCTION (CLAD) AND IDIOPATHIC PULMONARY FIBROSIS (IPF)” (priority 2014, published 2015).
No end group written: not given here.

Assays:
Assay in all cases: Kinase Profiling Assay
Format in all cases: biochemical
Conditions in all cases: peptide 100 μM
[1] = molecular target: WNK2(h) (Homo sapiens, UniProt Q9Y3S1)
Outline: (§1)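 In this 266-kinase specificity panel, every measurement was duplicated. Transfer of labeled phosphate from ATP to a cationic substrate was quantified after the substrate adhered to an anionic filter membrane and was scintillation-counted, then related to a full-activity control.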

[2] = molecular target: T1, Hck(h) (Homo sapiens, UniProt P08631)
T1 construct: purchased Millipore
Outline: as §1

[3] = molecular target: T2, EphB2(h) (Homo sapiens, UniProt P29323)
T2 sequence (P29323 19-1055): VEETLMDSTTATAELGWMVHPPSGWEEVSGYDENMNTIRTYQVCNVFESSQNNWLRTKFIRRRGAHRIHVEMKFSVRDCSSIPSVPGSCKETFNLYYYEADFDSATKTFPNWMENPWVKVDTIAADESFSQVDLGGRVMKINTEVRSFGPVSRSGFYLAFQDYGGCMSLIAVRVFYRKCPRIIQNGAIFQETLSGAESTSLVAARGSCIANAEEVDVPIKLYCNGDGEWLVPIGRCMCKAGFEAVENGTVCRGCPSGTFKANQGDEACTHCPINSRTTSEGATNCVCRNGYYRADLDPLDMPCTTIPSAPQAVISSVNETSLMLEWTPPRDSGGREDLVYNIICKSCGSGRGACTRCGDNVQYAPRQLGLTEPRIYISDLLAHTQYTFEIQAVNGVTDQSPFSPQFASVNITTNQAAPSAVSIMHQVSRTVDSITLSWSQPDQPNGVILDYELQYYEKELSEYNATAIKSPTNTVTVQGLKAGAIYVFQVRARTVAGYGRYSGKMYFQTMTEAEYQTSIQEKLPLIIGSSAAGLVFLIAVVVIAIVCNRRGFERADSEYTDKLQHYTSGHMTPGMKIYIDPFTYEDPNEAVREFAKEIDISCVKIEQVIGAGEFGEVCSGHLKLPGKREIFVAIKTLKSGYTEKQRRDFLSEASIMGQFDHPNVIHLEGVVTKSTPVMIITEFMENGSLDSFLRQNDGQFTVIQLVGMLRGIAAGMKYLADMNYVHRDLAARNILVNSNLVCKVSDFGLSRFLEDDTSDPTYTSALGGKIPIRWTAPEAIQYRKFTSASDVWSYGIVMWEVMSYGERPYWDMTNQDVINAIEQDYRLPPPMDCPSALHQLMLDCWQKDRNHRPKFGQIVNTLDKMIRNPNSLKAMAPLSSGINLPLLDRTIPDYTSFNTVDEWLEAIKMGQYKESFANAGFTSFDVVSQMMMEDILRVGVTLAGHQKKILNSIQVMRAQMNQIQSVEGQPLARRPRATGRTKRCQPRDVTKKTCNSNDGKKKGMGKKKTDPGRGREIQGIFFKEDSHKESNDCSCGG
Outline: as §1

[4] = molecular target: T3, MAPKAP-K3(h) (Homo sapiens, UniProt Q16644)
T3 construct: purchased Millipore
Outline: as §1

[5] = molecular target: T4, MuSK(h) (Homo sapiens, UniProt O15146)
T4 construct: purchased Millipore
T4 sequence (O15146 24-869): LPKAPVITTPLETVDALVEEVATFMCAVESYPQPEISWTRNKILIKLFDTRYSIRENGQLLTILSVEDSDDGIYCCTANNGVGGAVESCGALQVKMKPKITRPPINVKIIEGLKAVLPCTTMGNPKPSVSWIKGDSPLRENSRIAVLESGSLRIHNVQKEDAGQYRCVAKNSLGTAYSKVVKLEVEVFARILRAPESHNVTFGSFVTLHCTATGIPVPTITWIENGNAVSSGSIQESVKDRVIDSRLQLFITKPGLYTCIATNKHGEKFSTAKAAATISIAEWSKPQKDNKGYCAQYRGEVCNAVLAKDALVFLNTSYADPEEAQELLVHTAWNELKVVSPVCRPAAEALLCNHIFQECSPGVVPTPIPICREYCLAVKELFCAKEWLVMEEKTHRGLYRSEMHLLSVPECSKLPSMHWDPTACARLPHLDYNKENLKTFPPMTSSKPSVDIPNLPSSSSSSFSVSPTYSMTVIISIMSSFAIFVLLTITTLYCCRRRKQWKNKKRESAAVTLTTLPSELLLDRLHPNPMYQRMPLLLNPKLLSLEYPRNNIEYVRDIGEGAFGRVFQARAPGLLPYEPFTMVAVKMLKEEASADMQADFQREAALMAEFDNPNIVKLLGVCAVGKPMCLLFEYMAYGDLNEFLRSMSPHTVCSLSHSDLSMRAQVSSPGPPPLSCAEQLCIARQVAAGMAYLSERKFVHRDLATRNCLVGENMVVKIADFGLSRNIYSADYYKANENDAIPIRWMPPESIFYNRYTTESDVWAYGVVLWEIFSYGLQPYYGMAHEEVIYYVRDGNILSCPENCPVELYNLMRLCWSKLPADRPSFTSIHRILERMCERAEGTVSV
Outline: as §1

[6] = molecular target: T5, Bmx(h) (Homo sapiens, UniProt P51813)
T5 sequence (P51813 1-675): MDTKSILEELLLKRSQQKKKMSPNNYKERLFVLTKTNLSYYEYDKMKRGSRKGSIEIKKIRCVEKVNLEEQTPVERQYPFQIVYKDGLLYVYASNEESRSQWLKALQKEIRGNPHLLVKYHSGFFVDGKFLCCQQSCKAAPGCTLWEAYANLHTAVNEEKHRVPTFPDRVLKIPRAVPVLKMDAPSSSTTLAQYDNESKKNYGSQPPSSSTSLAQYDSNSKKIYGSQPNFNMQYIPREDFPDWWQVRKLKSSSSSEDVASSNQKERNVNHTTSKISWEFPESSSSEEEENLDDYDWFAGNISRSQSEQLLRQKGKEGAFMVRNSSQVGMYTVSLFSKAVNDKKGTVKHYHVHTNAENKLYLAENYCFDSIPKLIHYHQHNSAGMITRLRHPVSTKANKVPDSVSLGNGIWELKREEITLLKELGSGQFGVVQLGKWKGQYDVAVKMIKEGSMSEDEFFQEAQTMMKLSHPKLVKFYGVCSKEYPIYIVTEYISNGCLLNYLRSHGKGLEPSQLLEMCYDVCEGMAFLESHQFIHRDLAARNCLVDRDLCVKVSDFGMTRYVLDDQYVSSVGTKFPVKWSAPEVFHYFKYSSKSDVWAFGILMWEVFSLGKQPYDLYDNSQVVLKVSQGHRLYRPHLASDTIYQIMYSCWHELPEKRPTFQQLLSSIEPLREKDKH
Outline: as §1

T1 sequence (P08631 whole entry): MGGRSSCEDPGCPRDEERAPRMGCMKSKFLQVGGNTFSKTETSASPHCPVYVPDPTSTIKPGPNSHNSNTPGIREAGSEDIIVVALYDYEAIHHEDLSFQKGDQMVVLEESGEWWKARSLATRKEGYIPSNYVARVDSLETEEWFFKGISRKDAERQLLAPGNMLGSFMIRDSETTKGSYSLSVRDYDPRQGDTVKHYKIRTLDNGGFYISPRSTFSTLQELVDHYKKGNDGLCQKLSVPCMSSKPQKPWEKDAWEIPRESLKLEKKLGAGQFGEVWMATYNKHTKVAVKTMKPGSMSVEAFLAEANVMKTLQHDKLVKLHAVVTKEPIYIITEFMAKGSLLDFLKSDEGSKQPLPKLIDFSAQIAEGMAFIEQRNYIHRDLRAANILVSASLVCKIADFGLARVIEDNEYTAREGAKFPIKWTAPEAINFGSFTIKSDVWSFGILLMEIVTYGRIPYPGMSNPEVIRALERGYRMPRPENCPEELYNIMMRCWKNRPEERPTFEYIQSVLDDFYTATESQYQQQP
T3 sequence (Q16644 whole entry): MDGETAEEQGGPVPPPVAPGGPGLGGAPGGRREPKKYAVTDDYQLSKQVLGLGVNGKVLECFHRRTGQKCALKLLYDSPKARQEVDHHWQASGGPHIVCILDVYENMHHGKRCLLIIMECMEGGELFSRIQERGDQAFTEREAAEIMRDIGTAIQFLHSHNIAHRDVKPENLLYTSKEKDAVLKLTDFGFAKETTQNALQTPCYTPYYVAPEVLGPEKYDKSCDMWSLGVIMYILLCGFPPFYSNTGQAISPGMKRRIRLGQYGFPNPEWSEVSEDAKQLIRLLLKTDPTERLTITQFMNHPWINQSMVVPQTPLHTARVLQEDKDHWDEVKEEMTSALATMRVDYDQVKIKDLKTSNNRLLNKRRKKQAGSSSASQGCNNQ
Sequence of WNK2(h) (Q9Y3S1 whole entry): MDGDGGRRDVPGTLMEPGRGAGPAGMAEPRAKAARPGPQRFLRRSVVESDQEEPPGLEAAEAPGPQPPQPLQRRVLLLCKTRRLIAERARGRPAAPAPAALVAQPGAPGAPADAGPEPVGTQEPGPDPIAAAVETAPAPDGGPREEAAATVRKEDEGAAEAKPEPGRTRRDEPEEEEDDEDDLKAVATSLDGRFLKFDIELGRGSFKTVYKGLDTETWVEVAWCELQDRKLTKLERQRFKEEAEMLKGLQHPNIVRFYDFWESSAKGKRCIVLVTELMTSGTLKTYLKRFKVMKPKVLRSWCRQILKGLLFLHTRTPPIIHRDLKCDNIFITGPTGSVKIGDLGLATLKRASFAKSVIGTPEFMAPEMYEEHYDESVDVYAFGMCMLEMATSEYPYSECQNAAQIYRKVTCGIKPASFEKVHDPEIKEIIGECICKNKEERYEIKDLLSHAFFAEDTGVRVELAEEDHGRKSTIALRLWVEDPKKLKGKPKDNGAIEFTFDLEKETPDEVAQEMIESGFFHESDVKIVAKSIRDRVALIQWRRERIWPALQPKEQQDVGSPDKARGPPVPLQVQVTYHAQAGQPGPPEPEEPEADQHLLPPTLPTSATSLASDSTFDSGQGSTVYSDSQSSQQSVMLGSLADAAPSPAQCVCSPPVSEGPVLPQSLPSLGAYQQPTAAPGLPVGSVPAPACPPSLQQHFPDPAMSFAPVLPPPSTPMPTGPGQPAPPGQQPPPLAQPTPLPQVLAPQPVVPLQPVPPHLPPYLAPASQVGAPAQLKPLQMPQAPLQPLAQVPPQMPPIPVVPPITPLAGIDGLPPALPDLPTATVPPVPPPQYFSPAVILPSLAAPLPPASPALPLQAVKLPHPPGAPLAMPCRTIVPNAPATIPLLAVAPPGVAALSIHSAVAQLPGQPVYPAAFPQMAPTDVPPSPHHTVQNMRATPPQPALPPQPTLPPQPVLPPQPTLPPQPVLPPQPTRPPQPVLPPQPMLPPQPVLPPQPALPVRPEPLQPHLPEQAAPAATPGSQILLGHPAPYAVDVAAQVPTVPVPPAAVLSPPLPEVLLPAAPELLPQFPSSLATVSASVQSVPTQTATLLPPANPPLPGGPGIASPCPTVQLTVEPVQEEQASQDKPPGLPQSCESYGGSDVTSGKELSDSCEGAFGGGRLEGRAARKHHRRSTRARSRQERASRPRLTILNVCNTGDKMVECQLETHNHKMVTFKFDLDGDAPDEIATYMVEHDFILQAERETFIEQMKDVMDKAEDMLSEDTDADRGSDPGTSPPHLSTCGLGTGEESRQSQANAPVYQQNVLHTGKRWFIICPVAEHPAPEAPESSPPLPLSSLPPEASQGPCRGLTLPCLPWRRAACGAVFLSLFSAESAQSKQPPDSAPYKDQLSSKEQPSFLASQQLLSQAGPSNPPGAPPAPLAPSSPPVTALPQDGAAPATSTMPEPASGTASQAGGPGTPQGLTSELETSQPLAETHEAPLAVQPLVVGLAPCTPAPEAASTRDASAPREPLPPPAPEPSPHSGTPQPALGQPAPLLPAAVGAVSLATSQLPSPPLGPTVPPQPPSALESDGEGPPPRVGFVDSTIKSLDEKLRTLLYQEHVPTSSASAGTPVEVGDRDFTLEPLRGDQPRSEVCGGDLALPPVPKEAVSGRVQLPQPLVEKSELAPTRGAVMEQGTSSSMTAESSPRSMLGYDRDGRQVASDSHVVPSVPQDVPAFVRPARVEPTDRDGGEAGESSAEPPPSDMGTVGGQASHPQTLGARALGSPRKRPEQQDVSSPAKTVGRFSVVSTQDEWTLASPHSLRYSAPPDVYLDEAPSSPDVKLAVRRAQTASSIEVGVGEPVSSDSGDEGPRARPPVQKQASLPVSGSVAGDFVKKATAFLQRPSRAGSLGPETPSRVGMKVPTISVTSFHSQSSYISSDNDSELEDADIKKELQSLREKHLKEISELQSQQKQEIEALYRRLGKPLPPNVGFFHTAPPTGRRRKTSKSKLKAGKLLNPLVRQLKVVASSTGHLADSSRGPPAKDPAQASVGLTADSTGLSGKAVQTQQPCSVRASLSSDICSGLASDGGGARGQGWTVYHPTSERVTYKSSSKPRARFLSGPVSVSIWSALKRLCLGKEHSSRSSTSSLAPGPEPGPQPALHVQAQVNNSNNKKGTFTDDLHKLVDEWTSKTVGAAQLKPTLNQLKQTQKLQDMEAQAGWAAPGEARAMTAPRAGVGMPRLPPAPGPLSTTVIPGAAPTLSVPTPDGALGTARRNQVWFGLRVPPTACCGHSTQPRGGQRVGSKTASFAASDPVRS

Sequence	% activity [1]	% activity [2]	% activity [3]	% activity [4]	% activity [5]	% activity [6]
FAKLAARLYRKALARQLGVAA [MMI-0300]	64%	72%	18%	3%	93%	
HRRIKAWLKKIKALARQLGVAA (Mammal) [MMI-0500]	8%	78%	70%	9%	27%	45%
KAFAKLAARLYRKALARQLGVAA [MMI-0400]	54%	72%	22%	7%	93%	26%
YARAAARQARAKALARQLGVAA [MMI-0100]	95%		68%	27%	85%	62%
YARAAARQARAKALNRQLGVA (Mammal) [MMI-0200]	94%		128%	39%		76%
